The results in this text go back to publication PMC12711917.

This assay addresses 5-TAMRA-labeled human CaV1.2-IQ peptide (human).

Sequence of 5-TAMRA-labeled human CaV1.2-IQ peptide (human) (Q13936 1659-1692): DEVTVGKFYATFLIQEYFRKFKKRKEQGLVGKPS

“calmodulin, wild type (from UniProt P0DP23 1-149) (natural protein)”: the f300 (calcium-dependent inactivation of the CaV1.2 channel; whole-cell voltage clamp of HEK293 cells co-transfected with human CaV1.2 α1C, β2a, α2δ and calmodulin) came out at 0.57.
